Test results reported in paper PMC3506659, “Snm1B Interacts with PSF2” (PLoS ONE, 2012).

Legend:
[1] = molecular target: N-terminal Myc epitope-tagged human PSF2 (Myc-PSF2) (UniProt Q9Y248); assay: co-immunoprecipitation (IP anti-Flag, IB anti-Myc), band ratio; conditions: 293T cells, transient expression
[2] = molecular target: T1, GFP-Flag-Snm1B^221–363 (human, UniProt Q9H816 221-363); assay: co-IP; 293T transiently co-transfected, RIPA lysate, GFP-Flag-Snm1B fragments immunoprecipitated with anti-GFP antibody and GammaBind G Sepharose, immunoblot anti-Myc; conditions: partners not purified
T1 construct: Named GFP-Flag-Snm1B: the Flag tag is at the 5′ end of the Snm1B fragment, GFP is fused in frame; also called PSF2 BR1; source: 293T, transiently transfected (pEGFP-C3), in lysate; not shown: Flag, N-terminal, kept
T1 sequence (looked up): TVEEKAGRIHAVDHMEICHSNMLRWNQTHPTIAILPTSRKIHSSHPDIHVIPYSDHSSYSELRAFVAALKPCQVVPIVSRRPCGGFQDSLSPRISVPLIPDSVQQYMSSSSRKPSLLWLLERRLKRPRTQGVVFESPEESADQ

[3] = molecular target: T2, Flag-Snm1B^Δ222–363 (human, UniProt Q9H816 1-221; Q9H816 364-532); assay: co-IP; 293T transiently co-transfected, RIPA lysate, Flag-Snm1B immunoprecipitated with anti-Flag M2 affinity gel at 4°C overnight, immunoblot for Myc-PSF2 or Mus81; with or without co-expressed Myc-PSF2 or HA-Mus81; conditions: partners not purified
T2 construct: RGR is my translation read in frame from its first base; source: 293T, transiently transfected (pLPC), in lysate; not shown: Flag, N-terminal, kept
T2 chain: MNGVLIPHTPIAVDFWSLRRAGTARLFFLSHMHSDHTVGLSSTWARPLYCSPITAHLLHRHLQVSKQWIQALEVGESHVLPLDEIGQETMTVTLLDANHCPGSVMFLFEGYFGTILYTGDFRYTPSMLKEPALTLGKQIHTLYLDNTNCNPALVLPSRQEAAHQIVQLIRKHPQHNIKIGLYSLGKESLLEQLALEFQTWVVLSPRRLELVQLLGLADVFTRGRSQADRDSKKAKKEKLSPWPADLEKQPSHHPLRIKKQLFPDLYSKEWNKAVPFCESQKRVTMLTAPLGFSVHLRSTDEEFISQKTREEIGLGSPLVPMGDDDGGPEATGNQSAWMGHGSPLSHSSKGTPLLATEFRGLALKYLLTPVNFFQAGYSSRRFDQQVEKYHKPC

[4] = molecular target: T3, N-terminal Flag epitope-tagged human Snm1B (Flag-Snm1B) (human, UniProt Q9H816 1-532); assay: as above; conditions: partners not purified
T3 construct: also called Flag-Snm1B-WT; Flag-Snm1B^WT; source: 293T, transiently transfected (pLPC), in lysate; not shown: Flag, N-terminal, kept
T3 sequence (looked up): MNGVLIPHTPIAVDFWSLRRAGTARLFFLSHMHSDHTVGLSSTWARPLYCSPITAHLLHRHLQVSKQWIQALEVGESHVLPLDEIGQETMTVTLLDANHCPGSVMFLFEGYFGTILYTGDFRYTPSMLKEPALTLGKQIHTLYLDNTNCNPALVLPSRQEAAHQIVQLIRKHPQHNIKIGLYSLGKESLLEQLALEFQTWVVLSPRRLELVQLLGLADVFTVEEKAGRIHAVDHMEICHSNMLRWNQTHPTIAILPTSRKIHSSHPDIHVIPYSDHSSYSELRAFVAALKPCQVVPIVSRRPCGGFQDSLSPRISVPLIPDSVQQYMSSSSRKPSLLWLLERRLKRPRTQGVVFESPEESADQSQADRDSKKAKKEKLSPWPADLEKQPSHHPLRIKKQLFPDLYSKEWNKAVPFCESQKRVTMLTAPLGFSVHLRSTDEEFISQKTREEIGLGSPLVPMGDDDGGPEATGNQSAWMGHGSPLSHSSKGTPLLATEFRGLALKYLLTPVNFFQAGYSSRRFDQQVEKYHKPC

With “N-terminal Flag epitope-tagged human Snm1B (Flag-Snm1B) (from UniProt Q9H816) N2” the other: normalized Myc-PSF2:Flag-Snm1B ratio ([1]; no Myc-TRF2 co-expressed, parent: 1) was 1.05 and the other: normalized Myc-PSF2:Flag-Snm1B ratio ([1]; wild type Myc-TRF2 co-expressed (parent value is Flag-Snm1B WT + Myc-TRF2 WT + Myc-PSF2 lane), parent: 0.41) was 0.81.

B1: N-terminal Myc epitope-tagged human PSF2 (Myc-PSF2) (natural protein, UniProt Q9Y248 1-185, looked up)
chain: MDAAEVEFLAEKELVTIIPNFSLDKIYLIGGDLGPFNPGLPVEVPLWLAINLKQRQKCRLLPPEWMDVEKLEKMRDHERKEETFTPMPSPYYMELTKLLLNHASDNIPKADEIRTLVKDMWDTRIAKLRVSADSFVRQQEAHAKLDNLTLMEINTSGTFLTQALNHMYKLRTNLQPLESTQSQDF
notes: PSF2, subunit of the GINS complex, human, full length; amplified from clone MGC-673 (ATCC); source: 293T, transiently transfected (pCMV-MYC), in lysate; not shown: Myc, N-terminal, kept
B1 was tested, and the “fold of co-immunoprecipitated Myc-PSF2 against GFP-Flag-Snm1B 413–532” value [2] was about 3 fold more and the “fold of co-immunoprecipitated Myc-PSF2 against Flag-Snm1B WT” value [3] was about 6 fold less.

B2: HA epitope-tagged Mus81 (HA-Mus81) (natural protein, UniProt Q96NY9 1-551, looked up)
chain: MAAPVRLGRKRPLPACPNPLFVRWLTEWRDEATRSRRRTRFVFQKALRSLRRYPLPLRSGKEAKILQHFGDGLCRMLDERLQRHRTSGGDHAPDSPSGENSPAPQGRLAEVQDSSMPVPAQPKAGGSGSYWPARHSGARVILLVLYREHLNPNGHHFLTKEELLQRCAQKSPRVAPGSARPWPALRSLLHRNLVLRTHQPARYSLTPEGLELAQKLAESEGLSLLNVGIGPKEPPGEETAVPGAASAELASEAGVQQQPLELRPGEYRVLLCVDIGETRGGGHRPELLRELQRLHVTHTVRKLHVGDFVWVAQETNPRDPANPGELVLDHIVERKRLDDLCSSIIDGRFREQKFRLKRCGLERRVYLVEEHGSVHNLSLPESTLLQAVTNTQVIDGFFVKRTADIKESAAYLALLTRGLQRLYQGHTLRSRPWGTPGNPESGAMTSPNPLCSLLTFSDFNAGAIKNKAQSVREVFARQLMQVRGVSGEKAAALVDRYSTPASLLAAYDACATPKEQETLLSTIKCGRLQRNLGPALSRTLSQLYCSYGPLT
notes: Mus81, subunit of the Mus81/Eme1 endonuclease; amplified from clone MGC:14953 (Imagenes); Detected with an anti-Mus81 antibody, which may also see the endogenous Mus81 of 293T cells; source: 293T, transiently transfected (pcDNA3), in lysate; not shown: HA, N-terminal, kept
In the case of B2, the “fold increase of co-immunoprecipitated Mus81 with Myc-PSF2 against without Myc-PSF2” value [4] is reported as over 2 fold.
